Assay results taken from US20170269069.

System: recombinant histone H3, wild type

Protein	H3NT protease activity (in vitro H3NT cleavage assay, Western blot with the H3CT antibody)
recombinant USP39 (enzyme, UniProt Q3TIX9 1-564, looked up, species assumed, His tag) Ubiquitin carboxyl-terminal hydrolase 39: MSSRSKRQSHGSTRGKRESESRGSSGRIKKERDREKEPEAASSRGSPVRVKREAEPAAREVPAPALPVVRVKREREADEDSEPEREVRAKNGRVDSEDRRSRHCPYLDTINRSVLDFDFEKLCSISLSHINAYACLVCGKYFQGRGLKSHAYIHSVQFSHHVFLNLHTLKFYCLPDNYEIIDSSLEDITYVLKPTFTKQQIANLDKQAKLSRAYDGTTYLPGIVGLNNIKANDYANAVLQALSNVPPLRNYFLEEDNYKNIKRPPGDIMFLLVQRFGELMRKLWNPRNFKAHVSPHEMLQAVVLCSKKTFQITKQGDGVDFLSWFLNALHSALGGTKKKKKTIVNDVFQGSMRIFTKKLPHPDLPAEEKEQLLHNDEYQETMVESTFMYLTLDLPTAPLYKDEKEQLIIPQVPLFNILAKFNGITEKEYKTYKENFLKRFQLTKLPPYLIFCIKRFTKNNFFVEKNPTIVNFPITNVDLREYLSEEVQAVHKNTTYDLIANIVHDGKPSEGSYRIHVLHHGTGKWYELQDLQVTDILPQMITLSEAYIQIWKRRDNDETNQQGA	only rMMP-9 possessed H3NT protease activity
recombinant DIM1 (enzyme, UniProt P83877 1-142, looked up, species assumed, His tag) Thioredoxin-like protein 4A: MSYMLPHLHNGWQVDQAILSEEDRVVVIRFGHDWDPTCMKMDEVLYSIAEKVKNFAVIYLVDITEVPDFNKMYELYDPCTVMFFFRNKHIMIDLGTGNNNKINWAMEDKQEMVDIIETVYRGARKGRGLVVSPKDYSTKYRY	only rMMP-9 possessed H3NT protease activity
